Test results: patent publication US7611721B1, “Adjuvant combination formulations” (priority 2000, dated 2009)
Where two headings read alike, the source gives them in different places.

B1: rIL-12: Recombinantly expressed murine IL-12 (Genetics Institute) (protein, UniProt P43431 23-215; P43432 23-335, looked up)
Interleukin-12 subunit alpha: RVIPVSGPARCLSQSRNLLKTTDDMVKTAREKLKHYSCTAEDIDHEDITRDQTSTLKTCLPLELHKNESCLATRETSSTTRGSCLPPQKTSLMMTLCLGSIYEDLKMYQTEFQAINAALQNHNHQQIILDKGMLVAIDELMQSLNHNGETLRQKPPVGEADPYRVKMKLCILLHAFSTRVVTINRVMGYLSSA
Interleukin-12 subunit beta: MWELEKDVYVVEVDWTPDAPGETVNLTCDTPEEDDITWTSDQRHGVIGSGKTLTITVKEFLDAGQYTCHKGGETLSHSHLLLHKKENGIWSTEILKNFKNKTFLKCEAPNYSGRFTCSWLVQRNMDLKFNIKSSSSSPDSRAVTCGMASLSAEKVTLDQRDYEKYSVSCQEDVTCPTAEETLPIELALEARQQNKYENYSTSFFIRDIIKPDPPKNLQMKPLKNSQVEVSWEYPDSWSTPHSYFSLKFFVRIQRKKEKMKETEEGCNQKGAFLVEKTSTEVQCKGGNVCVQAQDRYYNSSCSKWACVPCRVRS
B2: GM-CSF: Recombinant murine granulocyte macrophage colony stimulating factor (protein, UniProt P01587 18-141, looked up)
Granulocyte-macrophage …: APTRSPITVTRPWKHVEAIKEALNLLDDMPVTLNEEVEVVSNEFSFKKLTCVQTRLKIFEQGLRGNFTKLKGALNMTASYYQTYCPPTPETDCETQVTTYADFIDSLKTFLTDIPFECKKPGQK

Experiments:
T1SP10MN(A) (−Cys) = settings: for Vaginal lavage reciprocal anti-T1SP10MN(A) (−Cys) IgA endpoint titer / Vaginal lavage reciprocal anti-T1SP10MN(A) (−Cys) IgG endpoint titer: Experiment 2, pooled, n=5 Balb/c, 15 days after secondary immunization
Procedure: Animals were bled prior to initial immunization, and at indicated time points. Serum was analyzed from individual mice, or as pools from mice within groups. Vaginal lavage was performed on euthanized mice to assess antibody levels. This was accomplished by instillation of 75:1 RPMI-10 into the vaginal vault of female mice using a 200:1 pipette. The vault was washed by repeated delivery and removal of fluid, which was then added to 10:1 of FBS. Vaginal lavage were analyzed as pools.
For analysis of HIV peptide-specific antibody and subclass distribution, peptide was suspended in either carbonate buffer (15 mM Na2CO3, 35 mM NaHCO3, pH 9.6), or PBS, at a concentration of 1 μg/ml and plated to 96 well microtiter plates (Nunc) in a volume of 100:1. After overnight incubation at 37° C., plates were washed, and blocked (0.1% gelatin/PBS) at room temperature for 2-4 hours. ELISA plates were washed with wash buffer (PBS, 0.1% Tween™20) before addition of serially diluted serum (PBS, 0.1% gelatin, 0.05% Tween™20, 0.02% sodium azide). After a four hour incubation, wells were washed and appropriate dilutions of biotinylated anti-isotype/subclass antibodies were added for incubation at 4° C. overnight. Wells were washed and incubated with strepavidin-conjugated horseradish peroxidase. After incubation, wells were washed, and developed with ABTS. Wells were read at 405 nm. Titers were standardized using control sera.
Vaginal IgG and IgA anti-peptide antibody titers were measured from lavage obtained 2 weeks after final immunization. Groups of 5 Balb/c female mice were immunized with 25 μg T1SP10MN(A) (−Cys) and the indicated adjuvant formulations on days 0, 28, and 42. Vaginal antibody titers were determined from pool d lavage fluid.
HIV peptide-specific vaginal lavage endpoint reciprocal endpoint IgG and IgA antibody titers were measured from pooled serum (n=5 Balb/c) 15 days after secondary immunization. […] Aqueous MPL™ was delivered at 50 μg per dose. Recombinant murine IL-12 was delivered at 40 ng/mouse. Recombinant murine GM-CSF was delivered at 10 μg/mouse.
Vaginal IgG and IgA anti-peptide antibody titers were measured from lavage 41 days after initial immunization, 13 days after secondary immunization.

spleen cells [1] = experiment: Secretion of interferon-gamma by spleen cells (ELISA); format: cell-based, Balb/c mice; settings: for Secretion of Interferon-gamma, Con A 5 μg/ml / Secretion of Interferon-gamma, HIV Peptide 1.1 μg/ml / Secretion of Interferon-gamma, HIV Peptide 3.3 μg/ml / Secretion of Interferon-gamma, HIV Peptide 10 μg/ml: Experiment 2, 96 hours culture, after subtraction of lysozyme value; for Secretion of Interferon-gamma, HIV Peptide 1.1 μg/ml / Secretion of Interferon-gamma, HIV Peptide 3.3 μg/ml / Secretion of Interferon-gamma, HIV Peptide 10 μg/ml: bd = below limit of detection; for Secretion of Interferon-gamma, Con A 1 μg/ml: Experiment 1
Procedure: (§1) For proliferation assays and in vitro cytokine analysis, spleen cells were obtained from mice at the indicated time points. Single cell suspensions were prepared from pools of 3-5 mice as indicated in Results. For proliferation and cytokine analysis, cells were suspended in round bottom 96 well culture plates precoated overnight with HIV peptide antigens, control proteins, or RPMI-10 only. Spleen cells were added at 5×10^5 cells/well using culture medium having 2× supplements. Cell culture supernatants were harvested from triplicate wells for cytokine analysis three or six days after culture initiation. Immediately after supernatant harvest, cultures were pulsed with ^3H-thymidine for 18-24 hours, and harvested to quantify cell proliferation.
(§2) For cytokine analysis, cell culture supernatants were added to wells coated with BVD6-11B11 (for anti-IL4), or R4-6A2 (for interferon-gamma). After incubation and washing, wells were developed using biotin-labeled BVD6-24G2 (for IL4) or XMG 1.2 (for interferon-gamma). The concentration of cytokines was determined using a standard curve prepared from recombinant murine interferon-gamma or interleukin-4. All cytokine reagents were purchased from Pharmingen (San Diego, Calif.).
(§3) Interferon-gamma secreted into culture by spleen cells stimulated with 25 μg T1SP10MN(A) (−Cys). Spleen cells were harvested from pools of five Balb/c female mice and cultured with the indicated antigenic stimuli (the same as in Example 6) for either three or six days. Interferon-gamma levels were determined by ELISA, and compared to a standard having a known concentration. Blank wells indicate that the assay could not detect Interferon-gamma from those culture conditions. The lower limit of detection sensitivity was 4 picograms/ml.
Cells were cultured for a total of 96 hours. Cell culture supernatants were analyzed for interferon-gamma by ELISA. All values were after subtraction from those determined from supernatants of cells stimulated with 10 μg of lysozyme. Results which were below the limit of detection, after subtraction from stimulation induced with lysozyme are indicated as “bd”. The adjuvants were the same as those in Example 12.

spleen cells [2] = experiment: Secretion of IL-4 by spleen cells (ELISA); format: cell-based, Balb/c mice; settings: for Secretion of IL-4, Con A 5 μg/ml / Secretion of IL-4, HIV Peptide 1.1 μg/ml / Secretion of IL-4, HIV Peptide 3.3 μg/ml / Secretion of IL-4, HIV Peptide 10 μg/ml: Experiment 2, 96 hours culture, after subtraction of lysozyme value; for Secretion of IL-4, HIV Peptide 1.1 μg/ml / Secretion of IL-4, HIV Peptide 3.3 μg/ml / Secretion of IL-4, HIV Peptide 10 μg/ml: bd = below limit of detection; for Secretion of IL-4, Con A 1 μg/ml: Experiment 1, Three Day Cultures, detection limit 22 Units/ml
Procedure: as §1, §2
as §3, with “Interleukin-4” for “Interferon-gamma”, “(−Cys) was measured.” for “(−Cys).”, “(50 ng IL-12, 10 μg GM-CSF, 50 μg MPL™” for “(the same”, “indicated)” for “in Example 6)”, “22 Units/ml.” for “4 picograms/ml.”
Cells were cultured for a total of 96 hours. Cell culture supernatants were analyzed for IL-4 by ELISA. All values were after subtraction from those determined from supernatants of cells stimulated with 10 μg of an irrelevant protein (lysozyme). Results which were below the limit of detection, after subtraction from stimulation induced with lysozyme are indicated as “bd”. The adjuvants were 40 ng IL-12, 10 μg GM-CSF and 50 μg MPL™.

spleen cells [3] = format: cell-based, Balb/c mice; settings: for Spleen cell proliferation index normalized to ConA, Con A 5 μg/ml / Spleen cell proliferation index normalized to ConA, HIV Peptide 1.1 μg/ml / Spleen cell proliferation index normalized to ConA, HIV Peptide 3.3 μg/ml / Spleen cell proliferation index normalized to ConA, HIV Peptide 10 μg/ml / Spleen cell proliferation index normalized to ConA, Lysozyme 10 μg/ml: Experiment 2, 96 hours culture; for Spleen cell proliferation index normalized to ConA, HIV Peptide 1.1 μg/ml / Spleen cell proliferation index normalized to ConA, HIV Peptide 3.3 μg/ml / Spleen cell proliferation index normalized to ConA, HIV Peptide 10 μg/ml / Spleen cell proliferation index normalized to ConA, Lysozyme 10 μg/ml: values in parentheses are less than unstimulated cells; for Spleen cell proliferation, Con A 1 μg/ml / Spleen cell proliferation, HIV Peptide 1.1 μg/ml / Spleen cell proliferation, HIV Peptide 3.3 μg/ml / Spleen cell proliferation, HIV Peptide 10 μg/ml: Experiment 1, immunized days 0 and 28, culture day 56, 96 hours
Procedure: as §1
Groups of five Balb/c female mice were immunized with 25 μg T1SP10MN(A) (−Cys) and the indicated adjuvants on days 0 and 28. Spleen cells were established in culture on day 56, and harvested for measurement of ^3H-thymidine incorporation 96 hours later. Mice were immunized with 50 ng IL-12, […], 50 μg MPL™ in an aqueous formulation, or as a stable emulsion with 2% SE. Data are presented as the delta cpm values as compared to proliferation values measured from cells grown in culture without stimulation.
Cells were cultured for a total of 96 hours. ^3H-thymidine was added to cultures for the last 18 hours. Data are presented as a proliferation index normalized to cells stimulated in culture with ConA ([mean cpm Antigen/mean cpm ConA]−[mean cpm medium/mean cpm ConA])×100. As a result, cells cultured in medium have a background proliferation of 0. Proliferation values less than cells grown in culture unstimulated are in parentheses.

[4] = Experiment 4, Balb/c, day 41, 13 days after secondary immunization
[5] = Experiment 1, pooled lavage, 5 Balb/c, immunized days 0, 28, 42, 2 weeks after final immunization
[6] = Three Day Cultures, detection limit 4 picograms/ml

Row | Molecule | Vaginal lavage reciprocal anti-T1SP10MN(A) (−Cys) IgA endpoint titer (T1SP10MN(A) (−Cys)) | Vaginal lavage reciprocal anti-T1SP10MN(A) (−Cys) IgG endpoint titer (T1SP10MN(A) (−Cys)) | Vaginal lavage IgA anti-T1SP10MN(A) (−Cys) antibody titer (T1SP10MN(A) (−Cys); [4]) | Vaginal lavage IgG anti-T1SP10MN(A) (−Cys) antibody titer (T1SP10MN(A) (−Cys); [4]) | Secretion of Interferon-gamma, Con A 5 μg/ml (spleen cells [1]) | Secretion of Interferon-gamma, HIV Peptide 1.1 μg/ml (spleen cells [1]) | Secretion of Interferon-gamma, HIV Peptide 3.3 μg/ml (spleen cells [1]) | Secretion of Interferon-gamma, HIV Peptide 10 μg/ml (spleen cells [1]) | Secretion of IL-4, Con A 5 μg/ml (spleen cells [2]) | Secretion of IL-4, HIV Peptide 1.1 μg/ml (spleen cells [2]) | Secretion of IL-4, HIV Peptide 3.3 μg/ml (spleen cells [2]) | Secretion of IL-4, HIV Peptide 10 μg/ml (spleen cells [2]) | Spleen cell proliferation index normalized to ConA, Con A 5 μg/ml (spleen cells [3]) | Spleen cell proliferation index normalized to ConA, HIV Peptide 1.1 μg/ml (spleen cells [3]) | Spleen cell proliferation index normalized to ConA, HIV Peptide 3.3 μg/ml (spleen cells [3]) | Spleen cell proliferation index normalized to ConA, HIV Peptide 10 μg/ml (spleen cells [3]) | Spleen cell proliferation index normalized to ConA, Lysozyme 10 μg/ml (spleen cells [3]) | Vaginal lavage IgA anti-T1SP10MN(A) (−Cys) antibody titer (T1SP10MN(A) (−Cys); [5]) | Vaginal lavage IgG anti-T1SP10MN(A) (−Cys) antibody titer (T1SP10MN(A) (−Cys); [5]) | Secretion of Interferon-gamma, Con A 1 μg/ml (spleen cells [1]; Six Day Cultures) | further results
1 | 3-O-deacylated monophosphoryl lipid A [MPL ™] | <10 | <10 | <10 | 12 | 203 units/ml | bd | bd | 5 units/ml | 286 pg/mL | 17 pg/mL | bd | 5 pg/mL | 99.2 | 0.5 | 1.4 | 1.0 | 0.4 |  |  |  | 
2 | B1 | <10 | <10 | <10 | <10 | 179 units/ml | 41 units/ml | 2 units/ml | 4 units/ml | 411 pg/mL | 15 pg/mL | bd | bd | 99.1 | 0.5 | 0.2 | 0.2 | 0.2 | <20 | <20 | 8.4 picograms/ml | Secretion of Interferon-gamma, Con A 1 μg/ml (spleen cells [1]; [6]): 5.9 picograms/ml; Secretion of IL-4, Con A 1 μg/ml (spleen cells [2]): 156 Units/ml; Spleen cell proliferation, Con A 1 μg/ml (spleen cells [3]): 42,612 delta cpm; Spleen cell proliferation, HIV Peptide 1.1 μg/ml (spleen cells [3]): 308 delta cpm; Spleen cell proliferation, HIV Peptide 3.3 μg/ml (spleen cells [3]): 692 delta cpm; Spleen cell proliferation, HIV Peptide 10 μg/ml (spleen cells [3]): 809 delta cpm
3 | B2 | <10 | 26 | <10 | <10 | 167 units/ml | 4 units/ml | 3 units/ml | 2 units/ml | 226 pg/mL | 36 pg/mL | 9 pg/mL | bd | 99.0 | 1.6 | 2.7 | 6.8 | 0.1 | <20 | <20 | 7.3 picograms/ml | Secretion of Interferon-gamma, Con A 1 μg/ml (spleen cells [1]; [6]): 17.6 picograms/ml; Secretion of IL-4, Con A 1 μg/ml (spleen cells [2]): 159 Units/ml; Spleen cell proliferation, Con A 1 μg/ml (spleen cells [3]): 55,578 delta cpm; Spleen cell proliferation, HIV Peptide 1.1 μg/ml (spleen cells [3]): 14,249 delta cpm; Spleen cell proliferation, HIV Peptide 3.3 μg/ml (spleen cells [3]): 19,784 delta cpm; Spleen cell proliferation, HIV Peptide 10 μg/ml (spleen cells [3]): 25,821 delta cpm
